# According to the RNAGym collection of RNA variant scans (doi:10.1073/pnas.2313332121):
# B1: TPR t1 (parent)
# chain: GACCAAUCUGCCCUCAGAGCUCGAGAACAUCUUCGGAUGCAGAGGAGGCAGGCUUCGGUGGCGCGAUAGCGCCAACGUCCUCAACCUCCAAUGCAUCCCACCACAUGAUGAUGCCUGAAGAGCCUUGGUUUUUUG
# Variants of: B1
# Assay: polymerase ribozyme fitness, log enrichment relative to wild type (log ratio); higher = more active; in vitro selection for triplet polymerase activity
# How it was run: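 Fitness compares each genotype's enrichment to that of the wild type on a logarithmic scale, averaging replicates with inverse-variance weights. The logarithm is base 2. Enrichment came from Illumina sequencing of input and output libraries after one triplicate round of in vitro selection, which included frozen incubation at −7 °C, of PCR-built, transcribed mutant libraries of each subunit of a heterodimeric triplet polymerase ribozyme. Only genotypes with ≥10 input reads and ≥1 read per output were kept.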
row,Variant,polymerase ribozyme fitness (log ratio)
1,G63U G110A,-1.81
2,G63U G110U,-3.12
3,G63U U78C A108G,-6.17
4,G63A C102U C114A,-6.03
5,G61U A84G U96G,-0.74
6,C64G C98U,-6.14
7,G61C U125G,-1.95
8,G63C C85A,-3.22
9,G61U C101A U125C,-4.61
10,C64U C86U G110U G122A,-4.18
11,G63A U78C A83G C88G,-3
12,G61U A84U,-0.0265
13,G63C C79G,-0.109
14,C62U C64U,-0.305
15,G61C G93U,-2.81
16,C62U U78G C86U,-0.761
17,C62A A83U A90U A91C,-3.43
18,G63C G77C,-2.42
19,G61U C99A,-5.7
20,A66C,-1.32
21,G61U U81G U129A,-4.47

row,Variant,polymerase ribozyme fitness (log ratio)
1,C62G G93C G120A U125G U131G,-3.65
2,G63U C88A,-1.89
3,C62A G93U C101G,-5.19
4,C62A U81G,-5.64
5,G63C G65A G117C A119G A121C,-7.02
6,C64A C73G,-6.34
7,C64U G120A G135A,0.278
8,C62U U125G G127C,-1.39
9,C64U G117A,-1.12
10,C64U C82U A95G,-0.455
11,G63A G93A,-1.38
12,C62U C89U,-0.519
13,C62U U78C U106C,-0.597
14,G63C G117U G120A,-2.53
15,C62A G77U C115G,-2.95
16,G63C C94A,-1.52
17,C62U C124U,0.977
18,C64A U78G,-6.68
19,C64A U78C,-6.04
20,C62U C72U,-1.03
21,G63A U131G G135U,-0.787

row,Variant,polymerase ribozyme fitness (log ratio)
1,G63A G110C C115G G120U,-7.28
2,G61C G107C C114A A119U,-6.57
3,C62U U87C,-0.408
4,G63C C85G U130G,-1.36
5,C64U A103G,-4.77
6,G63A A84U C86A U125G,-2.61
7,G61U A83U A90G,0.371
8,G61U A103C,-5.47
9,G63U C102A,-3.78
10,C64A C79U C102A A119G,-7.09
11,C62U A84C C89A C123U,-1.62
12,G63C C70U A90G,0.0962
13,C62A A95U A121C,-0.641
14,G61U A118G,0.1
15,C62U C76G A83U C89G U116C U130G,-2.99
16,G63C C88U,-1.29
17,G63C C88A,-1.08
18,G63U G128A,-3.29
19,C62A C101A G113A,-2.77
20,G61U U81A,-0.596
21,C62G G122U,-1.08

row,Variant,polymerase ribozyme fitness (log ratio)
1,G63A U109C,-2.75
2,G61U A100C U106A U112A,1.26
3,C62U C97A,-5.14
4,C62G A119U G128C,-4.08
5,A66C G69A C123U U126A,-4.63
6,C62A C79U C88G G135U,-2.35
7,G61U C82G A91C U112C,0.876
8,G61U U125G,-0.883
9,G63U A84C U130A,-2.23
10,G61C U78G U112A G128A,-6.61
11,C64A U78C U81G G120A,-6.42
12,C62A C114A,-2.71
13,C62G U112G,-1.83
14,G61U U87A A121U,1.5
15,G61U C104U,0.264
16,G63A U126G U130G,-4.43
17,C64G U112A U126C,-5.9
18,G63U C70A G127C,-0.596
19,C62A A84U,-1.52
20,C62A C99U,-3.69
21,G63C U92A U132A,-3.33
